This note sets out measurements from patent US20250388680A1 (KITE PHARMA, published 2025).

Substitutions are numbered along the chain they refer to.

B1: D2AD88607-5141 (antibody, V domains shown)
VH: QVQLVESGGGVVQPGRSLRLSCAASGFTFSSYGMHWVRQAPGKGLEWVAIISYDGSDKYYADSVKGRFTISRDNSKNTLYLQMNSLRAEDTAVYYCARNYNYYMDVWGKGTTVTVSS
VL: EIVMTQSPATLSLSPGERATLSCRASQSVRSSYLSWYQQKPGQAPRLLIYGTSTRATGIPARFSGSGSGTDFTLTISSLQPEDFAVYYCQQDYNLPLTFGGGTKVEIK
notes: also called mAb_038
B2: D2D88607-15321 (antibody, V domains shown)
VH: EVQLVESGGGLVQPGGSLRLSCAASGFTFSFNDMNWVRQAPGKGLEWVSTISGSGGSTYYADSVKGRFTISRDNSKNTLYLQMNSLRAEDTAVYYCAVTGLYYYYYMDVWGKGTTVTVSS
VL: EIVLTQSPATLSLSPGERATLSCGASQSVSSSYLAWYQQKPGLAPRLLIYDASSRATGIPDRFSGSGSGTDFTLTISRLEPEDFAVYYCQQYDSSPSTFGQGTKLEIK
notes: also called mAb_018
B3: D2D88607-9226 (antibody, V domains shown)
VH: QVQLQQWGAGLLKPSETLSLTCAVYGGSFSGYYWSWIRQPPGKGLEWIGEFNHSGGPNYNPSLKSRVTISTDTSNNQFSLKLSSVTAADTAVYYCARGTTGNYYYYMDVWGKGTTVTVSS
VL: AIQMTQSPSSLSASVGDRVTITCRASQGIRNDLGWYQQKPGKAPKLLIYAASSLQSGVPSRFSGSGSGTDFTLTISSLQPEDFATYYCLQDYIYPPTFGPGTKLEIK
notes: also called mAb_023
B4: D2AD88607-7048 (antibody, V domains shown)
VH: EVQLVESGGGLVQPGGSLRLSCAASGFTFSSYDMHWVRQATGKGLEWVSAIGTAGDKYYLASVKGRFTISRENAKNSLYLQMNSLRAGDTAVYYCVRDSLTGPTVTPYMDVWGKGTTVTVSS
VL: EIVLTQSPDFQSVTPKEKVTITCRASQSIGSGLHWYQQKPDQSPKLLIIYASQSISGVPSRFSGSGSGTDFTLTINSLEAEDAAAYYCHQSSSLPYTFGQGTKLEIK
notes: also called mAb_042
B5: D2AD89041-10444 (antibody, V domains shown)
VH: EVQLLESGGGLVQPGGSLRLSCAASGFTFNNYVMAWVRQVPGKGLEWVSGISGSGLITSYAASVKDRFTISRDNSNNTVYLQMKSLRAEDTAVYFCAKEPHVLLDDYMDVWGKGTTVTVSS
VL: EIVLTQSPATLSLSPGERATLSCGASQSVTSSYLAWYQQKPGLAPRLLIYDASNRATGIPDRFSGSGSGTDFTLTISRLEPEDFAVYYCQQYGRSLTFGGGTKVEIK
notes: also called mAb_049
B6: D2D88607-14083 (antibody, V domains shown)
VH: EVQLLESGGDLVQPGGSLRLSCAASGFTFSSYAMNWVRQAPGKGLEWVSAISGSGVFTYYADSVKGRFTISRDNSENTLYLQMNSLRAEDTAVYYCAKEMQQLIQGDLFDIWGQGTMVTVSS
VL: B5 VL with T30S, S31N, S32N, N54S, R94S, L96H, G100Q, V104L
notes: also called mAb_017

The target in the first experiment is T1, huCLEC12B (Acro Biosystems) (human, UniProt Q2HXU8 65-276, limits assumed).
T1 construct: Bought protein
T1 sequence (looked up): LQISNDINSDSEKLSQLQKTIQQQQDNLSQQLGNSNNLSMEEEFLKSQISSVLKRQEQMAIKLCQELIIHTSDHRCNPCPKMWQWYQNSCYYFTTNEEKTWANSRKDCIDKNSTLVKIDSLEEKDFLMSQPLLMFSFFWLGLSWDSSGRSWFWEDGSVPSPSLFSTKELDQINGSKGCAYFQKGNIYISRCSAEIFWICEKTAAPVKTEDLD
The experiment in a line: Octet BLI, mAb captured on FAB2G anti-human Fab biosensors. On the procedure: (§1) Octet Off-Rate Ranking Assay: Alternate binding assay was conducted with the recombinant antibodies confirming specific binding to CLL1 without binding to CLEC12B. Briefly, purified mAbs were individually captured on FAB2G anti-human Fab biosensors. The mAb-captured biosensors were dipped in wells containing antigen and the binding response was measured. Biosensors were later dipped in buffer wells to observe the dissociation of bound antigen from captured mAb and were regenerated and similar binding kinetic assays were performed for subsequent antigens. The binding kinetics of fifteen mAbs were illustrated in Table 2.
B1: the binding result is given as “no binding”.

As for B2, the binding result is recorded as “no binding”.

Take B3: the binding result is recorded as “no binding”.

On to B4, for which the binding result is given as “no binding”.

For the molecule B5, the binding result is “no binding”.

For the molecule B6, the binding result is reported as “no binding”.

The target in another experiment is T2, muIgG2a huCLL1 (human, UniProt Q5QGZ9 65-265, limits assumed).
T2 construct: It may be the same construct as muIgG2a monoFc huCLL1 (+) of the ELISA; also called huCLL1.mIgG2a; not shown: mouse IgG2a part
T2 sequence: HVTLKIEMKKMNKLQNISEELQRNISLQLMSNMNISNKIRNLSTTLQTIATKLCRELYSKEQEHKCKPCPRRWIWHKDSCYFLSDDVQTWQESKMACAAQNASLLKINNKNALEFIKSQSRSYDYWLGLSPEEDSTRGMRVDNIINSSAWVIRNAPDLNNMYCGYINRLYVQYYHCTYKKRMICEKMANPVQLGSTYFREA
Put plainly: Octet BLI, mAb captured on FAB2G biosensor, antigen in solution. As to the method: as §1
A general note: In BLI a coated tip is dipped into the sample, and binding shifts an interference pattern.
Take B1: the Kd (usually a measure of binding affinity in units of concentration) is 0.766 nM and the t½ (usually the time in which the quantity being followed falls by half) came to 54.4 min.

As to B2, binding was characterised by a dissociation constant (Kd) of 4.29 nM and the “t½” value turned out to be 83.2 min.

Regarding B3, the affinity, expressed as Kd, was 0.347 nM and the “t½” value stood at 64.1 min.

For B4, the affinity, expressed as Kd, was 2.98 nM and the “t½” value is 7.7 min.

B5: the “t½” value worked out at 5.4 min.

For B6, the Kd was 0.374 nM and the “t½” value amounted to 116 min.

The target in the next experiment is T3, huIgG1 huCLL1 (human, UniProt Q5QGZ9 65-265, limits assumed).
T3 construct: not shown: human IgG1 part
T3 sequence: T2 sequence
The experiment is described as above. On the procedure:
as §1
Consider B1, for which binding was characterised by a dissociation constant (Kd) of 19.9 nM and the “t½” value was determined as 2.3 min.

In the case of B2, binding was characterised by a dissociation constant (Kd) of 29.4 nM and the “t½” value was determined as 9.1 min.

Take B3: the Kd was 2.28 nM and the “t½” value worked out at 16.5 min.

As to B4, the equilibrium dissociation constant (Kd) stood at 81.1 nM and the “t½” value turned out to be 0.3 min.

For the molecule B5, the “t½” value was 0 min.

In the case of B6, the Kd amounted to 3.19 nM and the “t½” value worked out at 18.6 min.

The next experiment deals with T4, muIgG2a monoFc huCLL1 (+) (human).
T4 construct: ELISA coating antigen
The experiment in a line: ELISA, plate coated with antigen 1 ug/mL; antibody 10.00 ug/mL in well. As to the method: ELISA Validation: Antibodies identified by the Beacon screen were made recombinantly and validated for binding to CLL1. High-binding ELISA plate was coated with muIgG2a monoFc huCLL1 (+) (1 μg/mL) overnight at 4° C. After removal of the antigen, the wells were blocked with 2% BSA in 1×PBS for 1 hour. The BSA was then removed and the primary antibody was added to the wells in 1×PBS solution, incubated at RT for 1 hour. The wells were washed four times with 1×PBS. HRP conjugated secondary antibody was added in blocking solution, and was incubated at RT for 45 minutes. The wells were washed five times with 1×PBS. TMB substrate was added, followed by stop solution. The plates were read at 450 nm.
Background: An ELISA detects its analyte on a solid surface through an enzyme-linked reagent.
As for B1, the “OD 450 nm” value stood at 2 OD.

B2: the “OD 450 nm” value was determined as 1.38 OD.

Regarding B3, the “OD 450 nm” value worked out at 1.75 OD.

As for B4, the “OD 450 nm” value was found to be 1.57 OD.

Consider B5, for which the “OD 450 nm” value stood at 0.205 OD.

In another experiment the target is T3, huIgG1 huCLL1. Put plainly: Octet BLI, mAb captured on FAB2G biosensor, antigen in solution; antigen huCLL1 fused to huIgG1 Fc. On the procedure: as §1
Regarding B5, the Kd is 1120 nM.

A further experiment has as its target T2, muIgG2a huCLL1. Put plainly: Octet BLI, mAb captured on FAB2G biosensor, antigen in solution; antigen huCLL1 fused to muIgG2a Fc. On the procedure:
as §1
For the molecule B5, binding was put at a Kd of 3.46 nM.
